Measurements as given in patent US20170335404A1 (REGENTS OF THE UNIVERSITY OF MINNESOTA, published 2017).

T1: recombinant human Nectin-1 extracellular domain (human, UniProt Q15223 31-355)
T1 sequence (looked up): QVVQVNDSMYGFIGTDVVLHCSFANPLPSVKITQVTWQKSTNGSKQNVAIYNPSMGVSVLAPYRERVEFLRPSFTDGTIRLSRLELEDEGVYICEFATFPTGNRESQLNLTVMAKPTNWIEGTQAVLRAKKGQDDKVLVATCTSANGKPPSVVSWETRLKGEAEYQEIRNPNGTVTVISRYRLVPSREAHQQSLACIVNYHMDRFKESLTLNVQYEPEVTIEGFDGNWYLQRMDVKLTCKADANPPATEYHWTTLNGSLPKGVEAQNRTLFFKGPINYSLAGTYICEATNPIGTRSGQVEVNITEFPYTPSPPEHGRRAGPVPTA

T2: Nectin-4 natively expressed on NIH:OVCAR5 parental cells (human, UniProt Q96NY8 32-510)
T2 construct: whole, on cells; The cells also express Nectin-1; also called NIH:OVCAR-5 cells
T2 sequence (looked up): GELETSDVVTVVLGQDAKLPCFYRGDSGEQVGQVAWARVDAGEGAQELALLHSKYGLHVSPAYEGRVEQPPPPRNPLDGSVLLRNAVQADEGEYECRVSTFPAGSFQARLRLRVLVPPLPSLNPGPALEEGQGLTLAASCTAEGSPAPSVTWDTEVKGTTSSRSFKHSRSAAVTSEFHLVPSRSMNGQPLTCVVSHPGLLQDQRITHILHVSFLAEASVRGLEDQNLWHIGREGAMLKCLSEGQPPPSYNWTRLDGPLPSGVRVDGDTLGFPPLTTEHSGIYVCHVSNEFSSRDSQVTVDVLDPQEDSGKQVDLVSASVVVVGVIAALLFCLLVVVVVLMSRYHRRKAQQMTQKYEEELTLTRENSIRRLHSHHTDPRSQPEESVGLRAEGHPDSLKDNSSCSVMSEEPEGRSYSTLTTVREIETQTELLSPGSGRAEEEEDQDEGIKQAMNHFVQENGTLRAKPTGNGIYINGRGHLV


Assays:
[1] = biological target: recombinant human Nectin-1 extracellular domain (human) (UniProt Q15223); experiment: cell-based or functional assay
[2] = biological target: T1, recombinant human Nectin-1 …; experiment: cell-based or functional assay
[3] = biological target: T2, Nectin-4 natively expressed on …; experiment: cell adhesion assay, NIH:OVCAR5 parental cells on coated microtiter plates
Protocol: Black, clear-bottom 96-well microtiter plates (Corning, Imported Costar, Corning, N.Y.) were coated with recombinant human Nectin-1 extracellular domain (R&D Systems), recombinant human Nectin-4 extracellular domain (R&D Systems), mouse laminin (Invitrogen™), or bovine serum albumin (BSA; Prohumin Diagnostic Grade, MilliPore) diluted in PBS. Covered plates were incubated overnight at 37° C. in a humidified incubator. After washing with PBS plus Ca²⁺/Mg²⁺ containing 2 mg/ml ovalbumin (Sigma-Aldrich), the plates were blocked for 1 h at 37° C. with 1% BSA in PBS without Ca²⁺/Mg²⁺. Confluent monolayers of NIH:OVCAR5 cells or NIH:OVCAR5-N4-over cells were detached with Accutase, and then filtered through a 40 μm cell strainer (BD Biosciences, San Jose, Calif.) to remove cell aggregates. The single cells were stained with CellTracker Green CMFDA (5-chlorornethylfluorescein diacetate; Invitrogen™) according to the manufacturer's protocol. After washing the plate, 30,000 cells were added to each well in 50 μl of RPMI 1640 media containing 2 mg/ml ovalbumin and allowed to adhere for 15-60 min at 37° C. Plates were vigorously washed four times and read in a BioTek Synergy fluorescent microplate reader (BioTek, Winooski, Va.). Experiments were conducted in triplicate. […]

[4] = biological target: full-length Nectin-4 overexpressed on NIH:OVCAR5-N4-over cells, Q96NY8; experiment: cell-based or functional assay

inhibition of adhesion of NIH:OVCAR5-N4-over cells to Nectin-1 [2] | inhibition of adhesion of NIH:OVCAR5-N4-over cells to Nectin-1 [4] [%] | Molecule | further results
 |  | mouse monoclonal antibody against human Nectin-1, R&D Systems MAB2880, clone #610835 | inhibition of cell adhesion to Nectin-1 [1]: 60%
≥ 50 >=50 of the printed range 50-100 % |  | H-TGNGIYINGRGHLV-NH2 [N4-P29] | 
≥ 50 >=50 of the printed range 50-100 % |  | H-QARLRLRVLVPPLP-NH2 [N4-P10] | 
 |  | recombinant human Nectin-4 extracellular domain (receptor, UniProt Q96NY8 32-349, looked up, extracellular domain; Bought reagent, coated on microtiter plates; also called recombinant Nectin-4) GELETSDVVTVVLGQDAKLPCFYRGDSGEQVGQVAWARVDAGEGAQELALLHSKYGLHVSPAYEGRVEQPPPPRNPLDGSVLLRNAVQADEGEYECRVSTFPAGSFQARLRLRVLVPPLPSLNPGPALEEGQGLTLAASCTAEGSPAPSVTWDTEVKGTTSSRSFKHSRSAAVTSEFHLVPSRSMNGQPLTCVVSHPGLLQDQRITHILHVSFLAEASVRGLEDQNLWHIGREGAMLKCLSEGQPPPSYNWTRLDGPLPSGVRVDGDTLGFPPLTTEHSGIYVCHVSNEFSSRDSQVTVDVLDPQEDSGKQVDLVSAS | binding result [3]: no binding (tested: 1 µg/well, up to 1 h)
≥ 50 >=50 of the printed range 50-100 % |  | H-WTRLDGPLPSGVRV-NH2 [N4-P22] | 
≥ 50 >=50 of the printed range 50-100 % |  | H-QRITHILHVSFLAE-NH2 [N4-P18] | 
 | > 50 | H-HSQVVQVNDSMYGF-NH2 [N1-P1] | 
 | > 50 | H-VNITEFPYTPSPPEHGRRA-NH2 [N1-P26] | 
 | > 50 | H-NWYLQRMDVKLTCK-NH2 [N1-P20] | inhibition of cell adhesion [4]: 100%
 | > 50 | H-ACIVNYHMDRFKES-NH2 [N1-P17] | 
